Experiment [1] deals with T1, human Dll1 (human, UniProt O00548 18-723).
T1 construct: whole, on cells
T1 sequence (looked up): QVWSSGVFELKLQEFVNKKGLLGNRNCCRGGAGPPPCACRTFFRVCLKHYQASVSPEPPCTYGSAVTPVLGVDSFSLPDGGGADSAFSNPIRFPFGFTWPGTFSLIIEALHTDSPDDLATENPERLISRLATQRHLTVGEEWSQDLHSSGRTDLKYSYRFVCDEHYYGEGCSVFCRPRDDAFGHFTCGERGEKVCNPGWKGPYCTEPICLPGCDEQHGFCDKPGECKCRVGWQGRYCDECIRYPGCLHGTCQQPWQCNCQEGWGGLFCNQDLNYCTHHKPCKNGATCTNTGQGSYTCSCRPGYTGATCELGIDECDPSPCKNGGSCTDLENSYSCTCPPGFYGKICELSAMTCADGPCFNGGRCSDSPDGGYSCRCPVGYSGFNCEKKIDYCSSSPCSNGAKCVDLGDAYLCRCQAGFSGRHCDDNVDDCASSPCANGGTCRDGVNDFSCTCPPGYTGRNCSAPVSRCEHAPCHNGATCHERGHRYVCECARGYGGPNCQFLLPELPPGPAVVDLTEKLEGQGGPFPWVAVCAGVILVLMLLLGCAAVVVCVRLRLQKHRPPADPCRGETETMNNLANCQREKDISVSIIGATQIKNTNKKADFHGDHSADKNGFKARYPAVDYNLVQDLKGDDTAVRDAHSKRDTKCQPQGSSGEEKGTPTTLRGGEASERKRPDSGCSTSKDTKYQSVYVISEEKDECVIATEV
In words: FACS, up to 300 µg/ml, HEK-293 cells stably overexpressing human Dll1.

Experiment [2] deals with T2, human Jagged1 (human, UniProt P78504 34-1218).
T2 construct: whole, on cells
In words: FMAT, hybridoma supernatant, 293T cells with human Jagged1. In outline:
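Transfected 293T cells (3000 expressing plus 15000 mock-transfected per well), in PBS with 2% FBS, were mixed with hybridoma supernatant and Cy5 goat anti-human IgG Fc (750 ng/ml final). After 3 h at room temperature, binding was read by FMAT fluorescence. Notch1/Fc served as positive control for DLL4 and Notch3/Fc for Jagged1.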

In experiment [3] the target is T2, human Jagged1. In words: FACS, 5 µg/ml, 293T cells with human Jagged1. The method in brief:
(§1)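 Antibodies at 5 or 15 μg/ml final in PBS/2% FCS incubated 1 h at 4 °C with transfected cells. Binding taken as the geometric mean fluorescence shift in Jagged1- or Dll1-transfected cells versus mock-transfected cells.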

Experiment [4] deals with T3, full length human DLL4 (human, UniProt Q9NR61 27-685).
T3 construct: whole, on cells; also called native DLL4 expressed in HEK293 cells
In words: FMAT competition, purified antibody vs Alexa-647 human Notch1/Fc, 293T cells with human DLL4. The method in brief: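 293T cells expressing full-length DLL4, mixed with untransfected cells, were preincubated 1 h at 4 °C with serially diluted purified antibody (from 5 μg/ml). Alexa-647 human Notch1/Fc (100 ng/ml stock) was then added for 3 h at 4 °C; bound Notch1/Fc measured by FMAT fluorescence.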

Experiment [5] concerns the target T1, human Dll1. Nature of the experiment: FACS, 15 µg/ml, 293T cells with human Dll1. In outline: as §1
The target of experiment [6] is T1, human Dll1. Nature of the experiment: FACS, 15 µg/ml, 293T cells with human Dll1 vs mock. The method in brief: as §1
Experiment [7] has as its target T3, full length human DLL4. In words: FACS competition, unlabeled antibody vs competitor Alexa-647 4B4, HEK293 cells with human DLL4. As for the experimental part: The ability of the purified DLL4 antibodies to inhibit the binding of other DLL4 antibodies to human DLL4 was assessed using a FACS assay. Briefly, antibodies were directly labelled with Alexa-647 using a commercially available labelling kit (e.g. Molecular Probes catalog #A30009, A-20186) as per the manufacturer's instructions. To determine the level of cross-competition, unlabelled anti-DLL4 antibodies (final concentration: 10-0.01 μg/ml) diluted in PBS containing 2% FCS were added to DLL4-expressing HEK 293 cells (as described in example 6; 50000 cells/well diluted in PBS containing 2% FCS) and incubated for 1 h at 4° C. Subsequently, Alexa-647 labeled anti-DLL4 antibodies were added at a final concentration of 0.1 μg/ml and plates were incubated for a further 1 h at 4° C. prior to washing and reading on a FACSCalibur instrument. Data that summarizes the ability of unlabeled antibodies (10, 1, 0.1 μg/ml) to compete with labeled 21H3RK for binding to human DLL4 is included in FIG. 3. Additional data that summarizes the ability of unlabeled antibodies to compete with labeled 21H3RK and 4B4 for binding to human DLL4 is included in Table 22.

Experiment [8] addresses T2, human Jagged1. In words: FACS, up to 300 µg/ml, HEK-293 cells stably overexpressing human Jagged1.

Some results are limits rather than exact numbers.

T3 sequence (Q9NR61 27-685): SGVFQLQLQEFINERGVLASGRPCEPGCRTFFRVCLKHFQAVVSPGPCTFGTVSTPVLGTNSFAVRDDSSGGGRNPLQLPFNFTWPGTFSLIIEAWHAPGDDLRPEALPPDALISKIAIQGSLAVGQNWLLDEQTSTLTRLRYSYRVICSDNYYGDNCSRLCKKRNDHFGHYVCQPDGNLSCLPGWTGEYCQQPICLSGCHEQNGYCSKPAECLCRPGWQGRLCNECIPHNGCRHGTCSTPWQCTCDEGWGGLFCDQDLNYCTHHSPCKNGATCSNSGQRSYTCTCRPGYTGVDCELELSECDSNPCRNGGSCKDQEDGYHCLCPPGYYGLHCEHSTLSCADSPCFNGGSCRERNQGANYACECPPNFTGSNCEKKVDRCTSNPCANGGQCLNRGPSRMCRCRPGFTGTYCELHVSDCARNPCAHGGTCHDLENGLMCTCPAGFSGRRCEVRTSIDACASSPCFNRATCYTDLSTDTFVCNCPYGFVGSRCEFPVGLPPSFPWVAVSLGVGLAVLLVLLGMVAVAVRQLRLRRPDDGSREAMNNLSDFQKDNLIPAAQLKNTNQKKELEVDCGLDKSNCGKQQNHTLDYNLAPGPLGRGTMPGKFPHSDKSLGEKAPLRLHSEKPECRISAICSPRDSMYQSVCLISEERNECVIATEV
T2 sequence (P78504 34-1218): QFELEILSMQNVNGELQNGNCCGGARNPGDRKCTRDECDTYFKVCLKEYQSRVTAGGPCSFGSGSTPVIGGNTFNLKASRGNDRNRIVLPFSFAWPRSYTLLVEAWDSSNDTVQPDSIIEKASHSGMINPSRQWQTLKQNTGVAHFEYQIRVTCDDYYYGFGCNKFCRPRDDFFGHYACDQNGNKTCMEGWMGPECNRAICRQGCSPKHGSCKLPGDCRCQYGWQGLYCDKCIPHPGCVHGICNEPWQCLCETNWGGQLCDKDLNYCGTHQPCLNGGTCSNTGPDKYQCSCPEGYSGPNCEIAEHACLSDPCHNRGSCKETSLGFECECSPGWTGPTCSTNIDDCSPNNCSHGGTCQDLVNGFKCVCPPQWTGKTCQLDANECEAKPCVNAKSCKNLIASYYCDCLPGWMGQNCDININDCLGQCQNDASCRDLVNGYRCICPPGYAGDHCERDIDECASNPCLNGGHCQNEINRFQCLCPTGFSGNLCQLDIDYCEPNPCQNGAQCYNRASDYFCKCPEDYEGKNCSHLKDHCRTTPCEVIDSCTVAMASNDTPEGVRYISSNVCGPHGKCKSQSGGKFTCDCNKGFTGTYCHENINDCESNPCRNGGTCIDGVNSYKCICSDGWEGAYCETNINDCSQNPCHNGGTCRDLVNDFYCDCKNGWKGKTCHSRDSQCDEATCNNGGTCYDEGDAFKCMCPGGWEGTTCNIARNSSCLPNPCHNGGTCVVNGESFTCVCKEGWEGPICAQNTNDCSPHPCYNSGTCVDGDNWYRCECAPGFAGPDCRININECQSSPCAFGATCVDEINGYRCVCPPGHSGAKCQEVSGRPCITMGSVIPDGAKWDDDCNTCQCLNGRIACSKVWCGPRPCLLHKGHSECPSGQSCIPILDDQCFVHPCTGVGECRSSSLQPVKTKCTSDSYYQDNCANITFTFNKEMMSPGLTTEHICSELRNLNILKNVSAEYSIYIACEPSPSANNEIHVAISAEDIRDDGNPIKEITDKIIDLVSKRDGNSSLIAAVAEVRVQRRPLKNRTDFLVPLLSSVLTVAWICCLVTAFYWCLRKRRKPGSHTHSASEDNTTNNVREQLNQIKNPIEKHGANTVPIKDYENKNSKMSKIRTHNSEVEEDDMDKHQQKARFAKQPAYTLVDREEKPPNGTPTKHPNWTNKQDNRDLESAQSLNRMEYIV

B1: 4B4 (antibody, IgG4, V domains shown)
VH: QVLLIQSGAEVKKPGASVQVSCKASGYTFTNYGVIWVRQAPGQGLEYMGWISAYNGNTNYAQKLQDRVTMTSDTSTTTAYMELRSLRSDDTAVYYCARELGSSFDYWGQGTLVTVSS
VL: SYELTQPPSVSVSPGQTARITCSGDALPKKYAYWYQQKSGQAPVLVIYEDIKRPSGIPERFSGSSSGTMATLTISGAQVEDEADYYCFSTDNSGDHSVFGGGTKLTVL
notes: Fully human; used for IgG4 rows and where no isotype is printed; also called 4B4 IgG4; 4B4.1
For B1, the fold over background in the experiment with human Dll1 [1] was under 2.5 fold. In the experiment with human Jagged1 [2], the Count was determined as 2, the FL1 was determined as 2590 and the FL1 x count was 5180. In addition, in the experiment with human Jagged1 [3], the “Jagged1/293T X Geo mean” value is 16.8. In the experiment with full length human DLL4 [4], the “% inhibition at 0.020 nM” value was determined as 14%, the “% inhibition at 0.070 nM” value was 21%, the “% inhibition at 0.21 nM” value is 23% and the “% inhibition at 0.62 nM” value was 65%. Besides, in the experiment with full length human DLL4 [4], the “% inhibition at 1.9 nM” value came out at 95%, the “% inhibition at 5.6 nM” value is 127%, the “% inhibition at 16.7 nM” value was determined as 136% and the IC50 was determined as 0.72 nM. Moreover, the “Dll1/293T X Geo mean” value in the experiment with human Dll1 [5] stood at 25.9. The Dll1/mock ratio in the experiment with human Dll1 [6] was 1.23. The molecule also had a half-inhibitory concentration (IC50) with full length human DLL4 [7] of 0.348 µg/mL. For the same molecule, the fold over background in the experiment with human Jagged1 [8] is under 2.5 fold.

B2: 9G8 (antibody, IgG4, V domains shown)
VH: QLQLQESGPGLVKPSETLSLSCTVSGGSISSSSSYWGLIRQPPGKGLEWIGSIYYSGSTYYSPSLKSRVSISVDTSKNQFSLKLSSVTAADTAVYFCARQGYGGHPDVFDIWGQGTMVTVSS
VL: SSELTQSPSVSVSPGQTARITCSGDKLGDVYVCWYQQKTGQSPVLVIYEDTKRPSGIPERFSGSNSGNTATLTISGTQVMDEADYYCQAWDSTTAVIFGGGTKLTVL
notes: Fully human; used for IgG4 rows and where no isotype is printed; also called 9G8 IgG4
For the molecule B2, the fold over background with human Dll1 [1] was under 2.5 fold. In the experiment with human Jagged1 [2], this molecule yielded a Count of 0, an FL1 of 0 and an FL1 x count of 0. For the same molecule, the “Jagged1/293T X Geo mean” value with human Jagged1 [3] is 17.4. Also, in the experiment with full length human DLL4 [4], the “% inhibition at 0.020 nM” value stood at 10%, the “% inhibition at 0.070 nM” value came out at 14%, the “% inhibition at 0.21 nM” value was found to be 33% and the “% inhibition at 0.62 nM” value amounted to 22%. Also, in the experiment with full length human DLL4 [4], the “% inhibition at 1.9 nM” value is 68%, the “% inhibition at 5.6 nM” value was 125%, the “% inhibition at 16.7 nM” value was 121% and the IC50 was found to be 1.88 nM. For the same molecule, the “Dll1/293T X Geo mean” value with human Dll1 [5] was 32.3. Also, the Dll1/mock ratio with human Dll1 [6] amounted to 1.23. This molecule also gave an IC50 with full length human DLL4 [7] of 0.856 µg/mL. In the experiment with human Jagged1 [8], the fold over background was under 2.5 fold.

B3: 2H10 (antibody, IgG4, V domains shown)
VH: QVQLVESGGGVVQPGRSLRLSCAASGFTFSRHGMHWVRQAPGKGLEWVAVVWFDGSNIYYADSVKGRFTISRDNSKNTLYLQMNSLRAEDTAMYYCARDSRIAAADYWGQGTLVTVSS
VL: SYELTQPPSVSVSPGQTVSITCSGDKLGDKYVCWYQQKPGQSPVLVIYQESKRPSGIPERFSGSSSGNTATLTISGTQAMDEADYYCQTWDSSLVVFGGGTKLTVL
notes: Fully human; used for IgG4 rows and where no isotype is printed; also called 2H10 IgG4
On to B3, for which, in the experiment with human Dll1 [1], the fold over background was under 2.5 fold. In the experiment with human Jagged1 [2], the Count was found to be 5, the FL1 amounted to 5030 and the FL1 x count was determined as 25200. In the experiment with human Jagged1 [3], the “Jagged1/293T X Geo mean” value was 9.28. In the experiment with full length human DLL4 [4], the “% inhibition at 0.020 nM” value was 6%, the “% inhibition at 0.070 nM” value is -3%, the “% inhibition at 0.21 nM” value came to 14% and the “% inhibition at 0.62 nM” value stood at 27%. In the experiment with full length human DLL4 [4], the “% inhibition at 1.9 nM” value turned out to be 45%, the “% inhibition at 5.6 nM” value turned out to be 119%, the “% inhibition at 16.7 nM” value was determined as 111% and the IC50 is 2.05 nM. Further, the “Dll1/293T X Geo mean” value with human Dll1 [5] worked out at 44.1. Also, the Dll1/mock ratio with human Dll1 [6] was found to be 1.1. This molecule also yielded an IC50 with full length human DLL4 [7] of 1.15 µg/mL. The same molecule came in with a fold over background with human Jagged1 [8] of under 2.5 fold.

B4: 21H3 (antibody, IgG4, V domains shown)
VH: QVQLVQSGAEVKKPGASVKVSCKASGYTFTNYGITWVRQAPGQGPEWMGWISAYNGNTNYAQKLQDRVTVTTDTSTSTAYMELRSLRSDDTAVYYCARDRVPRIPVTTEAFDIWGQGTMVTVSS
VL: QSVLTQPPSASGTPGQRVTISCSGSSSNIGSYFVYWYQQLPGTAPKLLIYRNNQRPSGVPDRFSGSESGTSASLAISGLRSEDEADYYCAAWDDSLSGHWVFGGGTRLTVL
notes: Fully human; used for IgG4 rows and where no isotype is printed; also called 21H3 IgG4
In the experiment with human Jagged1 [2], B4 yielded a Count of 0, an FL1 of 0 and an FL1 x count of 0. In the experiment with human Jagged1 [3], the “Jagged1/293T X Geo mean” value is 15.5. In addition, in the experiment with full length human DLL4 [4], the “% inhibition at 0.020 nM” value is -17%, the “% inhibition at 0.070 nM” value was -2%, the “% inhibition at 0.21 nM” value amounted to 25% and the “% inhibition at 0.62 nM” value came out at 9%. Also, in the experiment with full length human DLL4 [4], the “% inhibition at 1.9 nM” value came to 68%, the “% inhibition at 5.6 nM” value came to 115%, the “% inhibition at 16.7 nM” value was 124% and the concentration for half-maximal inhibition (IC50) stood at 1.73 nM. Further, the “Dll1/293T X Geo mean” value in the experiment with human Dll1 [5] amounted to 32.4. In addition, the Dll1/mock ratio with human Dll1 [6] was determined as 1.16. In the experiment with full length human DLL4 [7], this molecule showed an IC50 of 0.274 µg/mL.
